Among the data in PMC4585930 are response (arbitrary units) values, retold here.

The target of this assay is GFP-CRN7 WT (UniProt Q55E54). The assay can be described thus: pull-down, western blot band intensity. To be noted: read off a plot. Background: A western blot detects proteins with antibodies after separation by electrophoresis.
Chain of UniProt Q55E54 (Q55E54 whole entry): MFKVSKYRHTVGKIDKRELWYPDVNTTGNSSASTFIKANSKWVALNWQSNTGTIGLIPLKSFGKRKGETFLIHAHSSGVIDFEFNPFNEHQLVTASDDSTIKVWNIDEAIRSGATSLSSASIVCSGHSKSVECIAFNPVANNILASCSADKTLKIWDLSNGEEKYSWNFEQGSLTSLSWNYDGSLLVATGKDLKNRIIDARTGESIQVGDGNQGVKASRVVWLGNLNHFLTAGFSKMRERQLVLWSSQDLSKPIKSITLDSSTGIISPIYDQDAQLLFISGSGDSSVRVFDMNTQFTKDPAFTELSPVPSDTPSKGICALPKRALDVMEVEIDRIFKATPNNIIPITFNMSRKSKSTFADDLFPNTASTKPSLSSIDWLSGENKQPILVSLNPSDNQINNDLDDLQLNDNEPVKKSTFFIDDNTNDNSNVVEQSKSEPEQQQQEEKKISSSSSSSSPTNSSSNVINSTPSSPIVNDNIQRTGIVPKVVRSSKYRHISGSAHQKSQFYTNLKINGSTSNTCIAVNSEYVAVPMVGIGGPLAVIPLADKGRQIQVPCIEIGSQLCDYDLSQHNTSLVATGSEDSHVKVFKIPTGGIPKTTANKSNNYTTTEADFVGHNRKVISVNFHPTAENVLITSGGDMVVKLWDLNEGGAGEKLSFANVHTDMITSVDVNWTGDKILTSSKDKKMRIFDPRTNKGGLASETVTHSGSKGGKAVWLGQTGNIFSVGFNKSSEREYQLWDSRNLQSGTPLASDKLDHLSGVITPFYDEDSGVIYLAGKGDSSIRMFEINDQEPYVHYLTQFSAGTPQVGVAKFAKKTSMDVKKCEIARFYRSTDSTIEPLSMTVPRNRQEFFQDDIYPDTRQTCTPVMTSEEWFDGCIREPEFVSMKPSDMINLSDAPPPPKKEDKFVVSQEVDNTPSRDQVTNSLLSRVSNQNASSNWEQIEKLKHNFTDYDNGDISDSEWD

Take “GST-RacC (from UniProt P34149) D to A (Mut2)”: the response (arbitrary units) reads like this: (RacC Mut2 loaded with GDP, parent: est. 61) 57; (RacC Mut2 loaded with GTPγS, parent: est. 39) 43.
As for “GST-RacC (from UniProt P34149) DD to QQ (Mut5)”, the response (arbitrary units) (RacC Mut5 loaded with GDP, parent: est. 61) stood at 51 and the response (arbitrary units) (RacC Mut5 loaded with GTPγS, parent: est. 39) amounted to 49.
“GST-RacC (from UniProt P34149) ED to KK (Mut1)”: the response (arbitrary units) by setting is: (RacC Mut1 loaded with GDP, parent: est. 61) 52; (RacC Mut1 loaded with GTPγS, parent: est. 39) 48.
In the case of “GST-RacC (from UniProt P34149) EE to KK (Mut4)”, the response (arbitrary units) is, setting by setting: (RacC Mut4 loaded with GDP, parent: est. 61) 54; (RacC Mut4 loaded with GTPγS, parent: est. 39) 46.
In the case of GST-RacC (from UniProt P34149) Y40K, the response (arbitrary units) was found to be 64 (RacC Mut3 loaded with GDP, parent: est. 61) and 36 (RacC Mut3 loaded with GTPγS, parent: est. 39).
